The supplement of paper PMC7877785
± gives the uncertainty stated by the source.

Experiment: self-splicing fitness, log relative to wild type (ln ratio); higher = more splicing; Tetrahymena group I intron in knt gene, E. coli kanamycin selection, DiMSum; sequences stand for … in CUCUCU…GGAGGGAAAAGUUAUCAGGCAUGCACCUGGUAGCUAGUCUUUAAACCAAUAGAUUGCAUCGGUUUAAAAGGCAAGACCGUCAAAUUGCGGGAAAGGGGUCAACAGCCGUUCAGUACCAAGUCUCAGGGGAAACUUUGAGAUGGCCUUGCAAAGGGUAUGGUAAUAAGCUGACGGACAUGGUCCUAACCACGCAGCCAAGUCCUAAGUCAACAGAUCUUCUGUUGAUAUGGAUGCAGUUCACAGACUAAAUGUCGGUCGGGGAAGAUGUAUUCUUCUCAUAAGAUAUAGUCGGACCUCUCCUUAAUGGGAGCUAGCGGAUGAAGUGAUGCAACACUGGAGCCGCUGGGAACUAAUUUGUAUGCGAAAGUAUAUUGAUUAGUUUUGGAGUACUCGUGGUCG
Method in brief: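 Pooled colonies went to amplicon sequencing on an Illumina HiSeq 2500 after six replicate transformations. The plates were LB agar with 100 μg/mL carbenicillin, 50 μM IPTG and 0.2% rhamnose, with or without 25 μg/mL kanamycin, incubated overnight at 37°C or 30°C. The E. coli BL21(DE3) library had all eight P1ex-region intron nucleotides randomised, the intron placed in the knt kanamycin-resistance gene on pET-22b(+). DiMSum fitness is the error-weighted combination of replicate fold changes, kanamycin against none, normalised to wild type.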

Row | Sequence | self-splicing fitness (ln) (30 °C) | self-splicing fitness (ln) (37 °C)
1 | AGGGAGCAAUAUUACGUUUG | -3.56 ± 0.39 | -2.66 ± 0.35
2 | AGGUAGCAAUAUUACGAAUC | -3.462 ± 0.031 | -2.2 ± 0.041
3 | AGGUAGCAAUAUUACGAAUU | -1.85 ± 0.017 | -0.996 ± 0.035
4 | AGGUAGCAAUAUUACGAGGA | -3.39 ± 0.034 | -2.43 ± 0.041
5 | AGGUAGCAAUAUUACGAGUA | -2.415 ± 0.023 | -1.52 ± 0.035
6 | AGGUAGCAAUAUUACGAUUG | -3.575 ± 0.026 | -2.44 ± 0.04
7 | AGGUAGCAAUAUUACGCAAG | -2.25 ± 0.018 | -1.26 ± 0.034
8 | AGGUAGCAAUAUUACGCCCA | 0.15 ± 0.02 | -0.0344 ± 0.039
9 | AGGUAGCAAUAUUACGCCUC | -3.88 ± 0.05 | -3.34 ± 0.068
10 | AGGUAGCAAUAUUACGCCUG | -0.743 ± 0.017 | -0.212 ± 0.035
11 | AGGUAGCAAUAUUACGCGAG | -1.32 ± 0.014 | -0.6 ± 0.032
12 | AGGUAGCAAUAUUACGCGUU | -1.888 ± 0.015 | -0.903 ± 0.033
13 | AGGUAGCAAUAUUACGCUAA | -1.66 ± 0.018 | -0.802 ± 0.035
14 | AGGUAGCAAUAUUACGCUAG | -4.002 ± 0.038 | -2.89 ± 0.046
15 | AGGUAGCAAUAUUACGGACG | -1.46 ± 0.015 | -0.546 ± 0.034
16 | AGGUAGCAAUAUUACGGCAC | -0.781 ± 0.017 | -0.277 ± 0.035
17 | AGGUAGCAAUAUUACGGCCA | 0.159 ± 0.018 | 0.165 ± 0.037
18 | AGGUAGCAAUAUUACGGCGC | -0.0707 ± 0.015 | 0.163 ± 0.033
19 | AGGUAGCAAUAUUACGGGGG | -3.715 ± 0.031 | -2.94 ± 0.044
20 | AGGUAGCAAUAUUACGGGUG | -3.141 ± 0.021 | -1.99 ± 0.036
21 | AGGUAGCAAUAUUACGGUAU | -1.957 ± 0.015 | -1.07 ± 0.033

Row | Sequence | self-splicing fitness (ln) (30 °C) | self-splicing fitness (ln) (37 °C)
22 | AGGUAGCAAUAUUACGUAAC | -2.092 ± 0.019 | -1.18 ± 0.035
23 | AGGUAGCAAUAUUACGUAUU | -2.78 ± 0.018 | -1.45 ± 0.035
24 | AGGUAGCAAUAUUACGUCAC | -3.764 ± 0.036 | -2.23 ± 0.042
25 | AGGUAGCAAUAUUACGUCCA | -0.144 ± 0.015 | -0.214 ± 0.035
26 | AGGUAGCAAUAUUACGUUCC | -0.904 ± 0.018 | -0.623 ± 0.036
27 | AGGUAGCAAUAUUACGUUCU | -0.768 ± 0.014 | -0.545 ± 0.033
28 | AGUAAGCAAUAUUACGAAUA | -1.84 ± 0.38 | 
29 | AGUAAGCAAUAUUACGACAG | -2.95 ± 0.2 | -1.94 ± 0.22
30 | AGUAAGCAAUAUUACGAUCG | -0.735 ± 0.17 | -0.248 ± 0.19
31 | AGUAAGCAAUAUUACGAUCU | 0.14 ± 0.15 | -0.333 ± 0.14
32 | AGUAAGCAAUAUUACGCAUA | -2.31 ± 0.25 | -1.38 ± 0.15
33 | AGUAAGCAAUAUUACGCGAC | -3.46 ± 0.23 | -2.63 ± 0.25
34 | AGUAAGCAAUAUUACGCGUA | -1.73 ± 0.15 | -0.118 ± 0.16
35 | AGUAAGCAAUAUUACGCUUU | -3.63 ± 0.26 | -2.36 ± 0.22
36 | AGUAAGCAAUAUUACGGAAU | -2.75 ± 0.14 | -1.5 ± 0.15
37 | AGUAAGCAAUAUUACGGACC | -0.0938 ± 0.13 | 0.0977 ± 0.16
38 | AGUAAGCAAUAUUACGGGAC | -3.47 ± 0.26 | -2.45 ± 0.26
39 | AGUAAGCAAUAUUACGGUAA | -2.63 ± 0.28 | -1.68 ± 0.15
40 | AGUAAGCAAUAUUACGGUAU | -2.52 ± 0.17 | -1.35 ± 0.13
41 | AGUAAGCAAUAUUACGUGUC | -3.49 ± 0.21 | -2.24 ± 0.2
42 | AGUAAGCAAUAUUACGUUGC | -4.14 ± 0.21 | -2.21 ± 0.17
